In the RNAGym collection of RNA variant scans (doi:10.1101/gr.219683.116):

B1: mRNA-splicing (parent)
chain: AGUUGCUGCUGGGAGCUCCAGCACAGUGAAAUGGACAGAAGGGCAGAGCAA

Variants of: B1
Test: exon inclusion enrichment index; higher = more inclusion; WT1 exon 5 minigene, HEK293

Variant | exon inclusion enrichment index
AGUUCUUCUCGGGAGCUGAAGCACAGUGAAAUGGACAGAAGGGCAGAGCAA [G5C C6U G8C C9U U10C C18G C19A] | 2.82
AGUUAUAUAUGGGAGCUCCAGCACAGUGAAAUGGACAGAAGGGCUGAGCAA [G5A C6U U7A G8U C9A A45U] | 0.132
AGGGAGGGAUGGGAGCUCCAGCACAGUGAAAUGGACAGAAGGGCAGAGCAA [U3G U4G G5A C6G U7G C9A] | 0.00966
AGUUCACACAGGGAGCUCAGGCACAGUGAAAUGGACAGAAGGGCAGAGCAA [G5C C6A U7C G8A U10A C19A A20G] | 0.00417
AGUUCGCGCCGGGAGCUCCAGCACAGUGAAAUGGACAGAAGGGCUGAGCAA [G5C C6G U7C U10C A45U] | 4.56
AGUUGAAGAAGGGAGCUCCAGCGAAGUGAAAUGGACAGAAGGGCAGAGCAA [C6A U7A C9A U10A A23G C24A] | 1.85
AGUUUCUUUUGGGAGCUCCGUCACAGUGAAAUGGACAGAAGGGCAGAGCAA [G5U G8U C9U A20G G21U] | 0.195
AGUUCACACAGGGAGCUCCAGCACAGUGAAAUGGACAGAAGGGCAUUGCAA [G5C C6A U7C G8A U10A G46U A47U] | 0.206
AGUUACCGCCGGGAGCUCCAGCACAGUGAAAUGGACAGAAGGGCAGAGCAA [G5A U7C U10C] | 4.21
AGUUAUAUAUGGGAGCUCCAGCACACUGAAAUGGACAGAAGGGCAGAGCAA [G5A C6U U7A G8U C9A G26C] | 0.142
AGUUCGACUCGGGAGCUCCAGCACAGUGAAAUGGACAGAAGGGCAGAGCAA [G5C C6G U7A G8C C9U U10C] | 3.05
AGUUCUUCUCGGGUUCUCCAGCACAGUGAAAUGGACAGAAGGGCAGAGCAA [G5C C6U G8C C9U U10C A14U G15U] | 0.556
AGUUAGAUAUGGGAGCUCCAGCACAGUGAAAUGGACAGAAGGGCAGAGCAA [G5A C6G U7A G8U C9A] | 0.00788
AGUUGACGACGGGAGCUCCAGCACAGUGAAAUGGACAGAAGGGGCGAGCAA [C6A U7C C9A U10C C44G A45C] | 4.25
AGUUUCUUUUGGGAUUUCCAGCACAGUGAAAUGGACAGAAGGGCAGAGCAA [G5U G8U C9U G15U C16U] | 0.0287
AGUUACCACCGGGAGCUCCAGCACAGUGAAAUGGACAGAAGGGCAUCGCAA [G5A U7C G8A U10C G46U A47C] | 2.94
AGUUCACACAGGGAGCUCCAGCUGAGUGAAAUGGACAGAAGGGCAGAGCAA [G5C C6A U7C G8A U10A A23U C24G] | 0.159
AGUUGAAGAAGGGAGCUCAGGCACAGUGAAAUGGACAGAAGGGCAGAGCAA [C6A U7A C9A U10A C19A A20G] | 0.0532
AGUUGAAGAAGGGAGCUCUCGCACAGUGAAAUGGACAGAAGGGCAGAGCAA [C6A U7A C9A U10A C19U A20C] | 0.579
AGUUGAAGAAGGGAGCUCCAGCACAGUGAAAUGGACAGAAGGGCUAAGCAA [C6A U7A C9A U10A A45U G46A] | 0.485
AGUUAGGACUGGGAGCUCCAGCACAGUGAAAUGGACAGAAGGGCAGAGCAA [G5A C6G U7G G8A] | 0.0142
AGUUGACGACGGGAGCUCCAGCACAAAGAAAUGGACAGAAGGGCAGAGCAA [C6A U7C C9A U10C G26A U27A] | 2.91
AGUUCUUCUCGGGAGCUCCAGCACAGACAAAUGGACAGAAGGGCAGAGCAA [G5C C6U G8C C9U U10C U27A G28C] | 2.07
AGUUCUUCUCGGGAGCUCCAGCACAGAAAAAUGGACAGAAGGGCAGAGCAA [G5C C6U G8C C9U U10C U27A G28A] | 2.06
AGUUGAGAAAGGGAGCUCCAGCACAGUGAAAUGGACAGAAGGGCAGAGCAA [C6A U7G G8A C9A U10A] | 0.0362
AGUUCUUCUCGGGAGCUCCAGCACAGUGAAAUGGACAGAAGGGCCCAGCAA [G5C C6U G8C C9U U10C A45C G46C] | 1.22

Variant | exon inclusion enrichment index
AGUUGACGACGGGAGCUCCAGCACAGUGAAGGGGACAGAAGGGCAGAGCAA [C6A U7C C9A U10C A31G U32G] | 2.7
AGUUGCUGCUGGGAGCUCAAGCACAGUGAAAUGGACAGAAGGGCAGAGCAA [C19A] | 1.49
AGUUCACACAGGGAGCUCCAGCACAGUGAAAUGGACAGAAGGGCGCAGCAA [G5C C6A U7C G8A U10A A45G G46C] | 0.26
AGUUAGGGAUGGGAGCUCCAGCACAGUGAAAUGGACAGACUGGCAGAGCAA [G5A C6G U7G C9A A40C G41U] | 0.00114
AGUUCUUCUCGGGAGCUCCAGCACAGUGAAUGGGACAGAAGGGCAGAGCAA [G5C C6U G8C C9U U10C A31U U32G] | 1.04
AGUUCACACAGGGACUUCCAGCACAGUGAAAUGGACAGAAGGGCAGAGCAA [G5C C6A U7C G8A U10A G15C C16U] | 0.0687
AGUUGACGACGGGAGCUCCAGCACAUCGAAAUGGACAGAAGGGCAGAGCAA [C6A U7C C9A U10C G26U U27C] | 4
AGUUAGGGAUGGGAGCUCCAGCACAGUGAAAUGGACAGUCGGGCAGAGCAA [G5A C6G U7G C9A A39U A40C] | 0.0022
AGUUCACACAAGGAGCUCCAGCACAGUGAAAUGGACAGAAGGGCAGAGCAA [G5C C6A U7C G8A U10A G11A] | 0.832
AGUUCGCGCCGGGAGCUAGAGCACAGUGAAAUGGACAGAAGGGCAGAGCAA [G5C C6G U7C U10C C18A C19G] | 1.5
AGUUGACGAGUGGAGCUCCAGCACAGUGAAAUGGACAGAAGGGCAGAGCAA [C6A U7C C9A U10G G11U] | 2.09
AGUUACCACCGGGAGCUCCCUCACAGUGAAAUGGACAGAAGGGCAGAGCAA [G5A U7C G8A U10C A20C G21U] | 1
AGUUAGGGAUGGGAGCUCGCGCACAGUGAAAUGGACAGAAGGGCAGAGCAA [G5A C6G U7G C9A C19G A20C] | 0.00232
AGUUGCUGCUGGGAGCUCCAGCACAGUGAGAUGGACAGAAGGGCAGAGCAA [A30G] | 0.182
AGUUCUUCCCGGGAGCUCCAGCACAGUGAAAUGGACAGAAGGGCAGAGCAA [G5C C6U G8C U10C] | 2.2
AGUUUCUUUUGGGAGCUGAAGCACAGUGAAAUGGACAGAAGGGCAGAGCAA [G5U G8U C9U C18G C19A] | 0.159
AGUUUCUUUUGGGAGCUGUAGCACAGUGAAAUGGACAGAAGGGCAGAGCAA [G5U G8U C9U C18G C19U] | 0.00531
AGUUAUAUAUGGGAGCUCCAGCACAGCCAAAUGGACAGAAGGGCAGAGCAA [G5A C6U U7A G8U C9A U27C G28C] | 0.1
AGUUAGGGAUGGGAGCUCCAGCACAGAAAAAUGGACAGAAGGGCAGAGCAA [G5A C6G U7G C9A U27A G28A] | 0.00156
AGUUGACGACGGGAGCUCCAGCACAGUGAAAUCAACAGAAGGGCAGAGCAA [C6A U7C C9A U10C G33C G34A] | 2.31
AGUUCUUCUCGGGAGCUCCAGCACAGUGUAAUGGACAGAAGGGCAGAGCAA [G5C C6U G8C C9U U10C A29U] | 0.63
AGUUAUAUAUGGGAGCUCCAGCGAAGUGAAAUGGACAGAAGGGCAGAGCAA [G5A C6U U7A G8U C9A A23G C24A] | 0.238
AGUUAUCCAUGGGAGCUCCAGCACAGUGAAAUGGACAGAAGGGCAGAGCAA [G5A C6U U7C G8C C9A] | 1.04
AGUUCUUCUCGGGAGCUCCAGCCAAGUGAAAUGGACAGAAGGGCAGAGCAA [G5C C6U G8C C9U U10C A23C C24A] | 2.31
ACGUCUUCUCGGGAGCUCCAGCACAGUGAAAUGGACAGAAGGGCAGAGCAA [G2C U3G G5C C6U G8C C9U U10C] | 1.98
